The record followed here is publication PMC10298792, “Structural basis for proapoptotic activation of Bak by the noncanonical BH3-only protein Pxt1” (PLOS Biology, 2023).

The labels stand for the following.
B1: synthetic human Pxt1(76–101) peptide (peptide, UniProt Q8NFP0 76-101, looked up)
peptide: EEIIHKLAMQLRHIGDNIDHRMVRED
notes: Pxt1, human, residues 76-101; also called human Pxt1 BH3; Pxt1 BH3 peptide; source: synthetic peptide (Peptron, Korea)
B2: human Pxt1(76–101) BH3 fragment, separately purified, as mixed with recombinant Bax (peptide, UniProt Q8NFP0 76-101, looked up)
chain: EEIIHKLAMQLRHIGDNIDHRMVRED
notes: Pxt1, human, BH3 domain, residues 76-101, cloned into pET21a-m2; it is surmised to be the recombinant pET21a-m2 product and not the synthetic peptide; also called Pxt1 BH3 fragment; human Pxt1 BH3 domain; source: separately purified (the recombinant construct was made in E. coli BL21(DE3) RIL)
B3: C-terminal His6-tagged human Bak (residues 23–185;C166S) (domain or fragment, UniProt Q16611 23-185, looked up)
chain: SEEQVAQDTEEVFRSYVFYRHQQEQEAEGVAAPADPEMVTLPLQPSSTMGQVGRQLAIIGDDINRRYDSEFQTMLQHLQPTAENAYEYFTKIATSLFESGINWGRVVALLGFGYRLALHVYQHGLTGFLGQVTRFVVDFMLHHSIARWIAQRGGWVAALNLGN
notes: also called recombinant Bak; source: E. coli BL21(DE3) RIL, purified (Ni-NTA, Superdex 75 gel filtration); not shown: His6, C-terminal, kept

The target in data set [1] is B3. Nature of the data set: ITC; Pxt1 peptide (0.8 mM) titrated into 80 μM recombinant Bak; no detergent; performed as in ref. 27. To be noted: both partners purified.
Data set [2] addresses T1, recombinant human Bax (residues 1–172;C62S·C126S) (human, UniProt Q07812 1-172, C62S | C126S).
T1 construct: Bax, human, residues 1-172 with C62S and C126S, cloned into pET21a-m1; also called recombinant Bax; source: E. coli BL21(DE3) RIL, purified (Ni-NTA, Superdex 75 gel filtration)
Nature of the data set: SEC; separately purified proteins mixed at a molar ratio of 1:3, incubated for 1 h; Superdex 200 increase 10/300 GL; no detergent; peak fractions on SDS–PAGE. To be noted: both partners purified.

Data set [3] concerns the molecule itself. Nature of the data set: SEC; 100 μM Bak, 1 mM Pxt1 BH3 peptide and 1% CHAPS; Superdex 75 10/300 GL. (Size exclusion chromatography separates by hydrodynamic size, large species first.)

T1 sequence (Q07812 1-172 C62S/C126S): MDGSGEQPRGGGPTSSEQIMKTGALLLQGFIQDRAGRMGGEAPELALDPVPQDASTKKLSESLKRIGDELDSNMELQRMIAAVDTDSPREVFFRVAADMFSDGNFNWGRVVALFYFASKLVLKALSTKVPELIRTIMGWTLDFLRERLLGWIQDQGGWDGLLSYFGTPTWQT

In general, Kd refers to the constant that tells how readily two partners part at equilibrium. In the case of B1, the Kd in data set [1] stood at 15.4 µM.
Consider B2, for which the binding result in data set [2] is on record as “binds”.
Usually stoichiometry N stands for the number of molecules, sites or subunits per partner or assembly. With B3, in data set [3], the “stoichiometry N” value worked out at 2.
